Laboratory results taken from patent US20020102260A1.

Target: VEGFR-2
Assay: cell-based or functional assay

activity towards the VEGFR-2 bioassay: 10 fold
Substance: VEGF-DΔN (from UniProt O43915 93-354) (ligand)
